Data reported in patent US7662583B2, “Bioreactor containing cells expressing glycosyltransferase nucleic acids isolatable from Arabidopsis” (The University of York, priority 2003, dated 2010).

Test: UGT enzyme reaction with quercetin (recombinant UGTs, HPLC)
Type: biochemical, Arabidopsis
Settings: 0.5 mM quercetin, 5 mM UDP-glucose, 30° C.; for Specific activity (nkat/mg protein) 3-O-glc: quercetin glucosylated at 3-OH; for Specific activity (nkat/mg protein) 3′-O-glc: quercetin glucosylated at 3′-OH; for Specific activity (nkat/mg protein) 4′-O-glc: quercetin glucosylated at 4′-OH; for Specific activity (nkat/mg protein) 7-O-glc: quercetin glucosylated at 7-OH
Description: The assay mix (200 μl) contained 2 μg of recombinant protein, 100 mM Tris-HCl, pH 7.0, 5 mM UDP-glucose 1.4 mM 2-mercaptoethanol, and 0.5 mM of quercetin. The reaction was carried out at 30° C. for 1 h, and was quick-frozen and stored at −20° C. prior to the reverse-phase HPLC analysis
Reverse-phase HPLC (SpectraSYSTEM HPLC systems and UV6000LP Photodiode Array Detector, ThermoQuest) analysis was carried using a Columbus 5μ C18 column (250×4.60 mm, PHENOMENEX). Quercetin glucosides were separated from the aglycone by a linear gradient of 10-75% acetonitrile in H2O (all solution contained 0.1% trifluoroacetic acid) at 1 ml/mm over 20 mm and monitored at 370 nm. Cytokinin glucosides were separated from their aglycone by a liner gradient of 10-100% methanol in H2O (for N6-isopentenyladenine (iP), N6-benzyladenine and kinetin) or 10-60% methanol in H2O (for trans-zeatin and dihydrozeatin) at 1 ml/min over 20 mm. All solution contained 0.25% acetic acid and 0.04% triethylamine, trifluoroacetic acid. The separation was monitored at 206 nm and 252 nm. The identity of the products was confirmed by comparison with authentic gluco sides.
The activity of Arabidopsis recombinant UGTs towards quercetin was determined using the platform developed previously^15.

Molecule	Specific activity (nkat/mg protein) 3-O-glc	Specific activity (nkat/mg protein) 3′-O-glc	Specific activity (nkat/mg protein) 4′-O-glc	Specific activity (nkat/mg protein) 7-O-glc
UGT71C4: Arabidopsis recombinant glycosyltransferase, FIG. 3 (protein, listed as Arabidopsis thaliana) MVKETELIFIPVPSTGHILVHIEFAKRLINLDHRIHTITILNLSSPSSPHASVFARSLIASQPKIRLHDLPPIQDPPPFDLYQRAPEAYIVKLIKKNTPLIKDAVSSIVASRRGGSDSVQVAGLVLDLFCNSLVKDVGNELNLPSYIYLTCNARYLGMMKYIPDRHRKIASEFDLSSGDEELPVPGFINAIPTKFMPPGLFNKEAYEAYVELAPRFADAKGILVNSFTELEPHPFDYFSHLEKFPPVYPVGPILSLKDRASPNEEAVDRDQIVGWLDDQPESSVVFLCFGSRGSVDEPQVKEIARALELVGCRFLWSIRTSGDVETNPNDVLPEGFMGRVAGRGLVCGWAPQVEVLAHKAIGGFVSHCGWNSTLESLWFGVPVATWPMYAEQQLNAFTLVKELGLAVDLRMDYVSSRGGLVTCDEIARAVRSLMDGGDEKRKKVKEMADAARKALMDGGSSSLATARFIAELFEDGSSC	1.33 nkat/mg protein	— (Activity lower than 0.02 nkat/mg protein has been considered as trace activity and is not shown in the Table.)	— (Activity lower than 0.02 nkat/mg protein has been considered as trace activity and is not shown in the Table.)	0.63 nkat/mg protein
UGT76E11: Arabidopsis recombinant glycosyltransferase (protein, UniProt Q9SNB1 1-451, looked up) UDP-glycosyltransferase 76E11: MEEKPAGRRVVLVAVPAQGHISPIMQLAKTLHLKGFSITIAQTKFNYFSPSDDFTDFQFVTIPESLPESDFEDLGPIEFLHKLNKECQVSFKDCLGQLLLQQGNEIACVVYDEFMYFAEAAAKEFKLPNVIFSTTSATAFVCRSAFDKLYANSILTPLKEPKGQQNELVPEFHPLRCKDFPVSHWASLESMMELYRNTVDKRTASSVIINTASCLESSSLSRLQQQLQIPVYPIGPLHLVASASTSLLEENKSCIEWLNKQKKNSVIFVSLGSLALMEINEVIETALGLDSSKQQFLWVIRPGSVRGSEWIENLPKEFSKIISGRGYIVKWAPQKEVLSHPAVGGFWSHCGWNSTLESIGEGVPMICKPFSSDQMVNARYLECVWKIGIQVEGDLDRGAVERAVRRLMVEEEGEGMRKRAISLKEQLRASVISGGSSHNSLEEFVHYMRTL	0.08 nkat/mg protein	— (Activity lower than 0.02 nkat/mg protein has been considered as trace activity and is not shown in the Table.)	— (Activity lower than 0.02 nkat/mg protein has been considered as trace activity and is not shown in the Table.)	0.12 nkat/mg protein
UGT76E2: Arabidopsis recombinant glycosyltransferase, FIG. 8 (protein, listed as Arabidopsis thaliana) MEEKQVKETRIVLVPVPAQGHVTPMMQLGKALHSKGFSITVVLTQSNRVSSSKDFSDFHFLTIPGSLTESDLQNLGPQKFVLKLNQICEASFKQCIGQLLHEQCNNDIACVVYDEYMYFSHAAVKEFQLPSVVFSTTSATAFVCRSVLSRVNAESFLIDMKDPETQDKVFPGLHPLRYKDLPTSVFGPIESTLKVYSETVNTRTASAVIINSASCLESSSLARLQQQLQVPVYPIGPLHITASAPSSLLEEDRSCVEWLNKQKSNSVIYISLGSLALMDTKDMLEMAWGLSNSNQPFLWVVRPGSIPGSEWTESLPEEFNRLVSERGYIVKWAPQMEVLRHPAVGGFWSHCGWNSTVESIGEGVPMICRPFTGDQKVNARYLERVWRIGVQLEGDLDKETVERAVEWLLVDEEGAEMRKRAIDLKEKIETSVRSGGSSCSSLDDFVNSM	0.17 nkat/mg protein	— (Activity lower than 0.02 nkat/mg protein has been considered as trace activity and is not shown in the Table.)	— (Activity lower than 0.02 nkat/mg protein has been considered as trace activity and is not shown in the Table.)	0.21 nkat/mg protein
UGT71C3: Arabidopsis recombinant glycosyltransferase, FIG. 2 (protein, listed as Arabidopsis thaliana) MKAEAEIIFVTYPSPGHLLVSIEFAKSLIKRDDRIHTITILYWALPLAPQAHLFAKSLVASQPRIRLLALPDVQNPPPLELFFKAPEAYILESTKKTVPLVRDALSTLVSSRKESGSVRVVGLVIDFFCVPMIEVANELNLPSYIFLTCNAGFLSMMKYLPERHRITTSELDLSSGNVEHPIPGYVCSVPTKVLPPGLFVRESYEAWVEIAEKFPGAKGILVNSVTCLEQNAFDYFARLDENYPPVYPVGPVLSLKDRPSPNLDASDRDRIMRWLEDQPESSIVYICFGSLGIIGKLQIEEIAEALELTGHRFLWSIRTNPTEKASPYDLLPEGFLDRTASKGLVCDWAPQVEVLAHKALGGFVSHCGWNSVLESLWFGVPIATWPMYAEQQLNAFSMVKELGLAVELRLDYVSAYGEIVKAEEIAGAIRSLMDGEDTPRKRVKEMAEAARNALMDGGSSFVAVKRFLDELIGGDV	0.11 nkat/mg protein	— (Activity lower than 0.02 nkat/mg protein has been considered as trace activity and is not shown in the Table.)	— (Activity lower than 0.02 nkat/mg protein has been considered as trace activity and is not shown in the Table.)	— (Activity lower than 0.02 nkat/mg protein has been considered as trace activity and is not shown in the Table.)
UGT73B4: Arabidopsis recombinant glycosyltransferase (protein, UniProt Q7Y232 1-484, looked up) UDP-glycosyltransferase 73B4: MNREQIHILFFPFMAHGHMIPLLDMAKLFARRGAKSTLLTTPINAKILEKPIEAFKVQNPDLEIGIKILNFPCVELGLPEGCENRDFINSYQKSDSFDLFLKFLFSTKYMKQQLESFIETTKPSALVADMFFPWATESAEKIGVPRLVFHGTSSFALCCSYNMRIHKPHKKVASSSTPFVIPGLPGDIVITEDQANVTNEETPFGKFWKEVRESETSSFGVLVNSFYELESSYADFYRSFVAKKAWHIGPLSLSNRGIAEKAGRGKKANIDEQECLKWLDSKTPGSVVYLSFGSGTGLPNEQLLEIAFGLEGSGQNFIWVVSKNENQVGTGENEDWLPKGFEERNKGKGLIIRGWAPQVLILDHKAIGGFVTHCGWNSTLEGIAAGLPMVTWPMGAEQFYNEKLLTKVLRIGVNVGATELVKKGKLISRAQVEKAVREVIGGEKAEERRLRAKELGEMAKAAVEEGGSSYNDVNKFMEELNGRK	12.14 nkat/mg protein	— (Activity lower than 0.02 nkat/mg protein has been considered as trace activity and is not shown in the Table.)	— (Activity lower than 0.02 nkat/mg protein has been considered as trace activity and is not shown in the Table.)	0.18 nkat/mg protein
UGT73B1: Arabidopsis recombinant glycosyltransferase (protein, UniProt Q8VZE9 1-488, looked up) UDP-glycosyltransferase 73B1: MGTPVEVSKLHFLLFPFMAHGHMIPTLDMAKLFATKGAKSTILTTPLNAKLFFEKPIKSFNQDNPGLEDITIQILNFPCTELGLPDGCENTDFIFSTPDLNVGDLSQKFLLAMKYFEEPLEELLVTMRPDCLVGNMFFPWSTKVAEKFGVPRLVFHGTGYFSLCASHCIRLPKNVATSSEPFVIPDLPGDILITEEQVMETEEESVMGRFMKAIRDSERDSFGVLVNSFYELEQAYSDYFKSFVAKRAWHIGPLSLGNRKFEEKAERGKKASIDEHECLKWLDSKKCDSVIYMAFGTMSSFKNEQLIEIAAGLDMSGHDFVWVVNRKGSQVEKEDWLPEGFEEKTKGKGLIIRGWAPQVLILEHKAIGGFLTHCGWNSLLEGVAAGLPMVTWPVGAEQFYNEKLVTQVLKTGVSVGVKKMMQVVGDFISREKVEGAVREVMVGEERRKRAKELAEMAKNAVKEGGSSDLEVDRLMEELTLVKLQKEKV	0.32 nkat/mg protein	— (Activity lower than 0.02 nkat/mg protein has been considered as trace activity and is not shown in the Table.)	— (Activity lower than 0.02 nkat/mg protein has been considered as trace activity and is not shown in the Table.)	0.14 nkat/mg protein
UGT76D1: Arabidopsis recombinant glycosyltransferase, FIG. 7 (protein, listed as Arabidopsis thaliana) MAEIRQRRVLMVPAPFQGHLPSMMNLASYLSSQGFSITIVRNEFNFKDISHNFPGIKFFTIKDGLSESDVKSLGLLEFVLELNSVCEPLLKEFLTNHDDVVDFIIYDEFVYFPRRVAEDMNLPKMVFSPSSAATSISRCVLMENQSNGLLPPQDARSQLEETVPEFHPFRFKDLPFTAYGSMERLMILYENVSNRASSSGIIHNSSDCLENSFITTAQEKWGVPVYPVGPLHMTNSAMSCPSLFEEERNCLEWLEKQETSSVIYISMGSLAMTQDIEAVEMAMGFVQSNQPFLWVIRPGSINGQESLDFLPEQFNQTVTDGRGFVVKWAPQKEVLRHRAVGGFWNHGGWNSCLESISSGVPMICRPYSGDQRVNTRLMSHVWQTAYEIEGELERGAVEMAVRRLIVDQEGQEMRMRATILKEEVEASVTTEGSSHNSLNNLVHAIMMQIDEQ	— (Activity lower than 0.02 nkat/mg protein has been considered as trace activity and is not shown in the Table.)	— (Activity lower than 0.02 nkat/mg protein has been considered as trace activity and is not shown in the Table.)	— (Activity lower than 0.02 nkat/mg protein has been considered as trace activity and is not shown in the Table.)	0.24 nkat/mg protein
